Assay results published in the supplement of paper PMC10126150.
± gives the standard deviation of the averaged measurements.

Test system: ATP
Assay: switch fluorescence ratio, 500 uM ATP over buffer (Cy3 cluster intensity, sum of 5 cycles each) (fold (ratio)); higher = stronger signal-on switching upon ATP binding; sequences stand for … in TCGTCGGCAGCGTCAGATGTGTATAAGAGACAGTTTTTTTTTTTTTTTTTTTTTTTTT…TC
Conditions: aptamer strand: ATP DNA aptamer (quencher-CACCTGGGGGAGTATTGCGGAGGAAGG + anchor), 100 nM annealed; ATP concentration: 500 uM
Method in brief: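 Five buffer/ATP imaging cycles were run on Cy3-labelled switching-strand clusters on a modified Illumina MiSeq flow-cell, with NaOH stripping and re-annealing between cycles. In each cycle, clusters annealed to 100 nM quencher-labelled ATP aptamer were imaged in selection buffer, then after 15 min with 500 uM ATP at 22 °C. Per cluster, the fluorescence ratio is summed target-cycle over summed buffer-cycle Cy3 intensity, averaged per switch-domain sequence. Only clusters within 100-1000 RFU were kept.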
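Note: ATP exposure 15 min at 22 °C before imaging.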

GTCGTATAGG
switch fluorescence ratio: 0.978 ± 0.023

TTCGGCCCCA
switch fluorescence ratio: 0.99 ± 0.031

GGGGTGGCGT
switch fluorescence ratio: 1.07 ± 0.1

CACGCAAGTG
switch fluorescence ratio: 1.03 ± 0.018

TTTGCCTTGG
switch fluorescence ratio: 1.02 ± 0.018

CAGCTAGTGT
switch fluorescence ratio: 0.984 ± 0.028

CTATAATGAG
switch fluorescence ratio: 0.9963 ± 0.0014

TCATTTTGG
switch fluorescence ratio: 0.992 ± 0.015

TATCGGGGGA
switch fluorescence ratio: 0.985 ± 0.061

ATTACAAATT
switch fluorescence ratio: 1.03 ± 0.05

GGTTTTGTTC
switch fluorescence ratio: 1.09 ± 0.11

AATTGAAGGC
switch fluorescence ratio: 0.972 ± 0.022

GCAACCCTAA
switch fluorescence ratio: 1.02 ± 0.055

GATTACCAAG
switch fluorescence ratio: 1.03 ± 0.025

AAAAAGCTGA
switch fluorescence ratio: 0.973 ± 0.055

GGGTCAAGTC
switch fluorescence ratio: 0.968 ± 0.04

AGGGGCGCCG
switch fluorescence ratio: 1 ± 0.06

TTTTAATCGT
switch fluorescence ratio: 0.985 ± 0.063

TGGTTGAAT
switch fluorescence ratio: 1.01 ± 0.049

TAACGGCATT
switch fluorescence ratio: 1.08 ± 0.037

GGTGGAGATC
switch fluorescence ratio: 1 ± 0.051

TTTTTTATGA
switch fluorescence ratio: 1.03 ± 0.027

GTTTTATGAG
switch fluorescence ratio: 0.959 ± 0.014

ATCGGGTGGG
switch fluorescence ratio: 1.001 ± 0.0075

ATGGGGGTTG
switch fluorescence ratio: 0.999 ± 0.018

AGCTAGTCGC
switch fluorescence ratio: 1.01 ± 0.027

AGGTACGTTT
switch fluorescence ratio: 1.03 ± 0.02

TGCTACGTTT
switch fluorescence ratio: 0.991 ± 0.02

CGACCGAACA
switch fluorescence ratio: 1.09 ± 0.014

TGCAGGGGGG
switch fluorescence ratio: 1.02 ± 0.039

AGGTACGGAG
switch fluorescence ratio: 1.01 ± 0.019

TCCGTAAATT
switch fluorescence ratio: 1.14 ± 0.013

AGGCTCTTTG
switch fluorescence ratio: 1.01 ± 0.04

ACTTAACCGG
switch fluorescence ratio: 1.05 ± 0.016

CTGGCTAGGC
switch fluorescence ratio: 1 ± 0.014

GAGGATATAG
switch fluorescence ratio: 1.03 ± 0.061

AGCAGAAATC
switch fluorescence ratio: 1.07 ± 0.039

AAAGAAGAGA
switch fluorescence ratio: 1.021 ± 0.0069

AAAAAAAGGT
switch fluorescence ratio: 1.021 ± 0.01

AGTTACCCGA
switch fluorescence ratio: 1.04 ± 0.011

ATTTAACGTC
switch fluorescence ratio: 1.02 ± 0.08

GTTATTTGGA
switch fluorescence ratio: 0.971 ± 0.069

GGGTGGGGTA
switch fluorescence ratio: 0.971 ± 0.036

TGCGAGGTTG
switch fluorescence ratio: 1.01 ± 0.041

AAGTTTTTTA
switch fluorescence ratio: 0.993 ± 0.023

TGGCCAGGGT
switch fluorescence ratio: 1.06 ± 0.031

TATTGTACTC
switch fluorescence ratio: 1.03 ± 0.018

TGGGGCGCAT
switch fluorescence ratio: 1.09 ± 0.064

TTAATTACCA
switch fluorescence ratio: 0.984 ± 0.029

TTCAGTGTTT
switch fluorescence ratio: 0.993 ± 0.023

ATGGGTCACG
switch fluorescence ratio: 0.987 ± 0.012

GGAAAGAGTT
switch fluorescence ratio: 1.07 ± 0.056

ATAGCCGTCG
switch fluorescence ratio: 1.07 ± 0.12

TAATTTTTT
switch fluorescence ratio: 1 ± 0.038

TTTAGCAGCT
switch fluorescence ratio: 0.993 ± 0.014

TATGAGCCTG
switch fluorescence ratio: 0.968 ± 0.047

ATTGCTTATT
switch fluorescence ratio: 0.974 ± 0.018

GTTTCCATGG
switch fluorescence ratio: 0.973 ± 0.033

ATATTTAATC
switch fluorescence ratio: 0.999 ± 0.0079

TCCCTTTGGG
switch fluorescence ratio: 0.971 ± 0.038

CCATTTGTTG
switch fluorescence ratio: 0.971 ± 0.02

GCTTCGTGTT
switch fluorescence ratio: 1.05 ± 0.003

CTTCTCTAGT
switch fluorescence ratio: 0.9742 ± 0.0069

TTGTGGTTTC
switch fluorescence ratio: 1.01 ± 0.017

TTCGGTGTGG
switch fluorescence ratio: 1.01 ± 0.04

TAGGTGCCGT
switch fluorescence ratio: 1 ± 0.076

GTGGGGAAGG
switch fluorescence ratio: 1.02 ± 0.054

GCTTTATTTA
switch fluorescence ratio: 0.992 ± 0.053

TCCACGGGTA
switch fluorescence ratio: 1.08 ± 0.068

CCTTGGGGAT
switch fluorescence ratio: 1.11 ± 0.12

GCGAGCCACG
switch fluorescence ratio: 1.007 ± 0.0076

TTGGATAGCG
switch fluorescence ratio: 0.982 ± 0.017

GATGCCGGGA
switch fluorescence ratio: 1.02 ± 0.038

TCTTTGCCGT
switch fluorescence ratio: 0.982 ± 0.021

ATTAATGGCG
switch fluorescence ratio: 0.9554 ± 0.009

AGTGGAATGC
switch fluorescence ratio: 1.12 ± 0.032

AAGTAATGCG
switch fluorescence ratio: 1.04 ± 0.034

TTAAGTCCGC
switch fluorescence ratio: 1.17 ± 0.034

CCAGGTATGA
switch fluorescence ratio: 1.03 ± 0.035

TGAAAATTCC
switch fluorescence ratio: 1.12 ± 0.073

CTAATAGTTT
switch fluorescence ratio: 1 ± 0.032

GACCAAGAAT
switch fluorescence ratio: 1.06 ± 0.03

TCAGGGGGTT
switch fluorescence ratio: 1.05 ± 0.037

TTGTTGCAAG
switch fluorescence ratio: 1.013 ± 0.0079

GGTTTAAGTT
switch fluorescence ratio: 0.99 ± 0.03

AGAGCCGGGG
switch fluorescence ratio: 0.9777 ± 0.003

TACATGATGG
switch fluorescence ratio: 1 ± 0.035

TATTTTTTGG
switch fluorescence ratio: 1.02 ± 0.033

TAGGTTTGTG
switch fluorescence ratio: 0.993 ± 0.03

CGATGTGGGT
switch fluorescence ratio: 0.989 ± 0.044

TTTAACGATC
switch fluorescence ratio: 1.01 ± 0.035

ACGGCTGGAA
switch fluorescence ratio: 0.969 ± 0.015

ATGACTTGTA
switch fluorescence ratio: 0.987 ± 0.015

CATCGGATAT
switch fluorescence ratio: 1.04 ± 0.052

CTAGTATATT
switch fluorescence ratio: 0.993 ± 0.025

GGGTGCCCAT
switch fluorescence ratio: 1.03 ± 0.021

TTAGGATGA
switch fluorescence ratio: 1.01 ± 0.027

TTTGCTGTAT
switch fluorescence ratio: 0.9747 ± 0.0032

GGAAGGGGTA
switch fluorescence ratio: 1.01 ± 0.048

AATTCGCAGT
switch fluorescence ratio: 1.17 ± 0.23

ATATGGTGGG
switch fluorescence ratio: 1.01 ± 0.025

TGTTTTAGG
switch fluorescence ratio: 0.998 ± 0.048

AGAGTTTTGG
switch fluorescence ratio: 0.979 ± 0.025

GTTGTGTATT
switch fluorescence ratio: 0.998 ± 0.022

ATTGCTACTT
switch fluorescence ratio: 1.031 ± 0.0052

CTAGAGGGAT
switch fluorescence ratio: 1.02 ± 0.038

CATTGTGTAT
switch fluorescence ratio: 0.975 ± 0.029

GCTAGGCCTT
switch fluorescence ratio: 0.9957 ± 0.0082

CTAGGGGACG
switch fluorescence ratio: 1.03 ± 0.032

CTTTCCGTGC
switch fluorescence ratio: 1.32 ± 0.035

ATCCAAGATT
switch fluorescence ratio: 1 ± 0.019

TTTGGTAGAA
switch fluorescence ratio: 0.996 ± 0.025

CGAGCGGGTA
switch fluorescence ratio: 0.989 ± 0.028

TTTTATTGGG
switch fluorescence ratio: 0.975 ± 0.031

GGTCCGATCG
switch fluorescence ratio: 0.9694 ± 0.0045

AGCTGGGAAG
switch fluorescence ratio: 0.982 ± 0.021

TTTGATTGGG
switch fluorescence ratio: 1.01 ± 0.037

CATTGATGTG
switch fluorescence ratio: 1 ± 0.011

CCCGCTAGTG
switch fluorescence ratio: 1.54 ± 0.12

ATTTAACTTA
switch fluorescence ratio: 1.008 ± 0.0016

TCTTTTTGCA
switch fluorescence ratio: 1.03 ± 0.014

GATAGATTAG
switch fluorescence ratio: 0.998 ± 0.0038

GGTAATTGCG
switch fluorescence ratio: 0.99 ± 0.022

AGACAGGGAC
switch fluorescence ratio: 1.04 ± 0.016

CGGGGATTCC
switch fluorescence ratio: 1.06 ± 0.031

AAAATCACGG
switch fluorescence ratio: 1.14 ± 0.1

CGGGCTCCGC
switch fluorescence ratio: 1.21 ± 0.099

AATGTGCCTT
switch fluorescence ratio: 1.056 ± 0.0057

TTCCATTTGC
switch fluorescence ratio: 1.05 ± 0.074

ACCTGTTTGT
switch fluorescence ratio: 1.01 ± 0.017

TATAAGTACG
switch fluorescence ratio: 1.27 ± 0.016

GATCTTATCG
switch fluorescence ratio: 0.984 ± 0.026

GGGGAGTGTT
switch fluorescence ratio: 0.998 ± 0.039

GGATTGAGTT
switch fluorescence ratio: 0.999 ± 0.035

TAACTAGGGG
switch fluorescence ratio: 1.49 ± 0.042

GGTTATTGGG
switch fluorescence ratio: 0.98 ± 0.075

GAAGAATTAA
switch fluorescence ratio: 1.0278 ± 0.00043

TTACTATGGC
switch fluorescence ratio: 0.966 ± 0.032

TAGTTCGTTT
switch fluorescence ratio: 0.998 ± 0.016

CGATGCGGTG
switch fluorescence ratio: 1.05 ± 0.033

CCTGGGGGG
switch fluorescence ratio: 1.02 ± 0.045

AAACGTGGGG
switch fluorescence ratio: 1.01 ± 0.066

GGTTGCACGC
switch fluorescence ratio: 1.01 ± 0.0046

AGATTTAGGG
switch fluorescence ratio: 0.986 ± 0.017

TTGGTTTAAA
switch fluorescence ratio: 1 ± 0.022

TGGGGGTGG
switch fluorescence ratio: 0.957 ± 0.046

GGTAACCGCT
switch fluorescence ratio: 1.01 ± 0.03

CTCGGTGAGG
switch fluorescence ratio: 0.991 ± 0.029

CAGGTCGTTT
switch fluorescence ratio: 1.032 ± 0.0069

AGGCCGGGTG
switch fluorescence ratio: 1.35 ± 0.052

TCTGGTTGAG
switch fluorescence ratio: 1.02 ± 0.019

TCCTGGTGAT
switch fluorescence ratio: 1.22 ± 0.12

TGCTAATAGG
switch fluorescence ratio: 1.01 ± 0.02

TTGCCAAATT
switch fluorescence ratio: 1.12 ± 0.13

TGAGCTGGGT
switch fluorescence ratio: 0.995 ± 0.02

AAATGTTCAC
switch fluorescence ratio: 0.996 ± 0.034

TGTGAGGGGT
switch fluorescence ratio: 0.994 ± 0.033

CGGAGTGCGG
switch fluorescence ratio: 0.983 ± 0.064

AATCCTAGTT
switch fluorescence ratio: 1.01 ± 0.011

ATAGGTTTTT
switch fluorescence ratio: 0.973 ± 0.024

GGAATCATAG
switch fluorescence ratio: 1.06 ± 0.07

GGTAACGACA
switch fluorescence ratio: 1.02 ± 0.019

AGGACGGGA
switch fluorescence ratio: 1.03 ± 0.035

GACCTATTTT
switch fluorescence ratio: 1.023 ± 0.0039

TTTACCTCGA
switch fluorescence ratio: 1.027 ± 0.0069

GAAAGGGTTT
switch fluorescence ratio: 1.01 ± 0.048

CTGGGGGGAG
switch fluorescence ratio: 1.01 ± 0.024

TTCCTTTGGG
switch fluorescence ratio: 0.964 ± 0.019

GGATGCTGTT
switch fluorescence ratio: 1.02 ± 0.012

GCCGTCTGGC
switch fluorescence ratio: 1.02 ± 0.045

TTATGATTGT
switch fluorescence ratio: 1.02 ± 0.03

GTTGTTGAAG
switch fluorescence ratio: 1.009 ± 0.0011

GAAGGGGGTT
switch fluorescence ratio: 0.973 ± 0.036

TGGGAGTTGG
switch fluorescence ratio: 1.03 ± 0.012

ACTAGGATTC
switch fluorescence ratio: 0.986 ± 0.0028

AGTTGCGTAG
switch fluorescence ratio: 0.989 ± 0.021

GGCGGGATAT
switch fluorescence ratio: 1.01 ± 0.032

CGTCCTGGGT
switch fluorescence ratio: 0.995 ± 0.011

TTGGGGTTTT
switch fluorescence ratio: 1.01 ± 0.037

AGCGGATTGT
switch fluorescence ratio: 1 ± 0.02

TCAGGCGGGC
switch fluorescence ratio: 1.015 ± 0.0058

CATAATGGTC
switch fluorescence ratio: 0.986 ± 0.041

AAATTCCGGG
switch fluorescence ratio: 1.02 ± 0.035

GGCCGAGTTA
switch fluorescence ratio: 1.013 ± 0.0036

TCCAGGGGGG
switch fluorescence ratio: 1.18 ± 0.27

AAGTTCCTTC
switch fluorescence ratio: 1.05 ± 0.036

TGAGGTATAT
switch fluorescence ratio: 1.01 ± 0.015

CGTAGGGGTG
switch fluorescence ratio: 0.969 ± 0.014

GGACGCTGTG
switch fluorescence ratio: 0.986 ± 0.043

CGGGCCACGC
switch fluorescence ratio: 1.04 ± 0.019

ACGGGGGTG
switch fluorescence ratio: 1.04 ± 0.074

AAGAGGGCAT
switch fluorescence ratio: 1.01 ± 0.022

TCCTAAACGG
switch fluorescence ratio: 0.988 ± 0.03

GGTAAGGGTT
switch fluorescence ratio: 0.9866 ± 0.0081

GGGTAAGAAG
switch fluorescence ratio: 0.971 ± 0.013

GTCTGGTTGA
switch fluorescence ratio: 1.02 ± 0.033

CAGTTATGCC
switch fluorescence ratio: 0.988 ± 0.077

TTATCCAGCT
switch fluorescence ratio: 1.01 ± 0.012

AATGATATCA
switch fluorescence ratio: 1.01 ± 0.025

AGTTTGGGCA
switch fluorescence ratio: 0.975 ± 0.029
